Laboratory results reported in US20170298146A1 (MODIQUEST B V, published 2017).
Non-standard residues stand in square brackets, D forms with d. No end group written: not given here. Cit = NC(=O)NCCC[C@H](N)C(=O)O

Columns and labels:
[1] = biological target: T1, human recombinant histone H2A (human); experiment: ELISA, 2 ug/well
T1 construct: Non-deiminated
Method: (§1) CFC-1 and CFC-0 were coated at the same concentration and served as positive and negative controls, respectively, for specific anti-citrulline reactivity and as coating controls. Non-coated wells were used to test for aspecific binding of the antibodies. […] Detection of bound anti-citrulline antibodies was performed by incubating the wells with rabbit-anti-human-HRP (1:2000) for one hour at RT followed by incubation with TMB substrate. The resulting OD (y-axis) is a measure for antibody binding. H1=recombinant histone 1; H1/p2=huPAD2 recombinant histone 1; H1/p4=huPAD4 recombinant histone 1 and so forth (x-axis).

[2] = biological target: T2, huPAD2 deiminated human recombinant histone H2A (human); experiment: ELISA, 2 ug/well
T2 construct: also called H2A/p2
Method: as §1

[3] = biological target: T3, huPAD4 deiminated human recombinant histone H2A (human); experiment: ELISA, 2 ug/well
T3 construct: also called H2A/p4; huPAD4 deiminated histone 2A
Method: as §1

[4] = biological target: T4, human recombinant histone H2B (human); experiment: ELISA, 2 ug/well
T4 construct: Non-deiminated
Method: as §1

[5] = biological target: T5, huPAD2 deiminated human recombinant histone H2B (human); experiment: ELISA, 2 ug/well
T5 construct: also called H2B/p2
Method: as §1

[6] = biological target: T6, huPAD4 deiminated human recombinant histone H2B (human); experiment: ELISA, 2 ug/well
T6 construct: also called H2B/p4
Method: as §1

[7] = biological target: T7, huPAD2 deiminated human recombinant histone H3 (human); experiment: ELISA, 2 ug/well
T7 construct: also called H3/p2
Method: as §1

[8] = biological target: T8, huPAD4 deiminated human recombinant histone H3 (human); experiment: ELISA, 2 ug/well
T8 construct: also called H3/p4
Method: as §1

[9] = biological target: T9, human recombinant histone H4 (human, UniProt P62805 2-103); experiment: ELISA, 2 ug/well
Method: as §1

CFC-1 [10] = biological target: T10, CFC-1; experiment: ELISA, 2 ug/well
T10 construct: Positive control for anti-citrulline reactivity; also called cfc1 XG
Method: as §1

[11] = biological target: T8, huPAD4 deiminated human recombinant …; experiment: ELISA, 10 ug/well
Method: as §1

[12] = biological target: T1, human recombinant histone H2A; experiment: ELISA, 0.00064 ug/well
Method: as §1

[13] = biological target: T2, huPAD2 deiminated human recombinant …; experiment: ELISA, 0.00064 ug/well
Method: as §1

[14] = biological target: T3, huPAD4 deiminated human recombinant …; experiment: ELISA, 0.00064 ug/well
Method: as §1

[15] = biological target: T4, human recombinant histone H2B; experiment: ELISA, 0.00064 ug/well
Method: as §1

[16] = biological target: T5, huPAD2 deiminated human recombinant …; experiment: ELISA, 0.00064 ug/well
Method: as §1

[17] = biological target: T6, huPAD4 deiminated human recombinant …; experiment: ELISA, 0.00064 ug/well
Method: as §1

[18] = biological target: T9, human recombinant histone H4; experiment: ELISA, 0.00064 ug/well
Method: as §1

CFC-1 [19] = biological target: T10, CFC-1; experiment: ELISA, 0.00064 ug/well
Method: as §1

CFC-1 [20] = biological target: T10, CFC-1; experiment: peptide ELISA, 2 ug/well
Method: (§2) Biotin and citrulline-containing peptides derived from fibrinogen and vimentin were immobilized on NEUTRAVIDIN®-coated 96-well ELISA plates (0.3 μg/well). CFC-1 and CFC-0 were coated at the same concentration and served as positive and negative controls respectively for specific anti-citrulline reactivity and as coating controls. Non-coated wells were used to test for aspecific binding of the antibodies. […] Detection of bound anti-citrulline antibodies was performed by incubating the wells with rabbit-anti-human-HRP (1:2000) for one hour at RT followed by incubation with TMB substrate. The resulting OD (y-axis) is a measure for antibody binding.
(§3) Biotin-labeled and citrulline-containing fibrinogen and vimentin peptides (Table 5) were also tested for reactivity with the therapeutic antibodies. Peptides were coated on 96-well NEUTRAVIDIN®-ELISA plates.

msFibα XH [21] = biological target: T11, msFibα XH (mouse, X at position 15 is citrulline; biotin label); experiment: peptide ELISA, 2 ug/well
T11 peptide: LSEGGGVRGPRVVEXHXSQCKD
Method: as §2, §3

msFibα XG [22] = biological target: T12, msFibα XG (mouse, X at position 8 is citrulline; biotin label); experiment: peptide ELISA, 2 ug/well
T12 peptide: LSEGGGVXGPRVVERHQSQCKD
Method: as §2, §3

huFibα XH [23] = biological target: T13, huFibα XH (human, X at position 15 is citrulline; biotin label); experiment: peptide ELISA, 2 ug/well
T13 peptide: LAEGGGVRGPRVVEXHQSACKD
Method: as §2, §3

huFibα XG [24] = biological target: T14, huFibα XG (human, X at position 8 is citrulline; biotin label); experiment: peptide ELISA, 2 ug/well
T14 peptide: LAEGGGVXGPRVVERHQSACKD
Method: as §2, §3

msFibβ XG [25] = biological target: T15, msFibβ XG (mouse, also: biotin label); experiment: peptide ELISA, 2 ug/well
T15 peptide: EPTDSLDA[Cit]GHRPVDRR
Method: as §2, §3

msVim XS/XL [26] = biological target: T16, msVim XS/XL (mouse, also: biotin label); experiment: peptide ELISA, 2 ug/well
T16 construct: also called mouse vimentin peptide
T16 peptide: YVT[Cit]SSAV[Cit]L[Cit]SSVP
Method: as §2, §3

CFC-1 [27] = biological target: T10, CFC-1; experiment: peptide ELISA, 0.0023 ug/well
Method: as §2, §3

msFibα XH [28] = biological target: T11, msFibα XH; experiment: peptide ELISA, 0.0023 ug/well
Method: as §2, §3

msFibα XG [29] = biological target: T12, msFibα XG; experiment: peptide ELISA, 0.0023 ug/well
Method: as §2, §3

huFibα XH [30] = biological target: T13, huFibα XH; experiment: peptide ELISA, 0.0023 ug/well
Method: as §2, §3

huFibα XG [31] = biological target: T14, huFibα XG; experiment: peptide ELISA, 0.0023 ug/well
Method: as §2, §3

msFibβ XG [32] = biological target: T15, msFibβ XG; experiment: peptide ELISA, 0.0023 ug/well
Method: as §2, §3

msVim XS/XL [33] = biological target: T16, msVim XS/XL; experiment: peptide ELISA, 0.0023 ug/well
Method: as §2, §3

B1: RhmAb2.102 (antibody, human IgG1, lambda)
heavy: not shown
light: QSVLTQPPSMSAAPGQKVTISCSGSSSNIGNNYVSWYQQVPGTAPKLLIYDDNKRPSGIPGRFSGSKSATSATLGITGLQAGDEADYYCGSWDDNLSVVLFGGGTKLTVLGQPKAAPSVTLFPPSSEELQANKATLVCLISDFYPGAVTVAWKADSSPVKAGVETTTPSKQSNNKYAASSYLSLTPEQWKSHRSYSCQVTHEGSTVEKTVAPTECS
notes: Human IgG1 lambda; also called Rhm2.102
[1]
  OD: 0.115 OD
[2]
  OD: 3.18 OD
[3]
  OD: 3.13 OD
[4]
  OD: 0.076 OD
[5]
  OD: 0.086 OD
[6]
  OD: 0.069 OD
[7]
  OD: 1.94 OD
[8]
  OD: 0.439 OD
[9]
  OD: 0.208 OD
CFC-1 [10]
  OD: 3.38 OD
[11]
  OD: 1.31 OD
[12]
  OD: 0.057 OD
[13]
  OD: 0.077 OD
[14]
  OD: 0.075 OD
[15]
  OD: 0.052 OD
[16]
  OD: 0.052 OD
[17]
  OD: 0.055 OD
[18]
  OD: 0.06 OD
CFC-1 [19]
  OD: 0.077 OD
CFC-1 [20]
  OD: 3.97 OD
msFibα XH [21]
  OD: 0.091 OD
msFibα XG [22]
  OD: 1.9 OD
huFibα XH [23]
  OD: 0.116 OD
huFibα XG [24]
  OD: 1.51 OD
msFibβ XG [25]
  OD: 3.15 OD
msVim XS/XL [26]
  OD: 2.77 OD
CFC-1 [27]
  OD: 0.506 OD
msFibα XH [28]
  OD: 0.085 OD
msFibα XG [29]
  OD: 0.125 OD
huFibα XH [30]
  OD: 0.123 OD
huFibα XG [31]
  OD: 0.125 OD
msFibβ XG [32]
  OD: 0.12 OD
msVim XS/XL [33]
  OD: 0.142 OD
